Results taken from patent publication US20160024199A1 (US Dept. of Health and Human Services, published 2016).
Numbering of substitutions follows the chain as printed. One block for each binder: values may come before it.

Assays:
[1] = molecular target: T1, human insulin-like growth factor II (IGF-II) (human, UniProt P01344 25-91); assay: ELISA on coated IGF-II after incubation of the antibody with an equal volume of human serum at 37 C for 0 to 9 days
T1 construct: also called biotinylated IGF-II
T1 sequence (P01344 25-91): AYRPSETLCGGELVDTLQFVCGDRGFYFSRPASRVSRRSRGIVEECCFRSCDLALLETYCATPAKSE

[2] = molecular target: T1, human insulin-like growth factor II …; assay: ELISA, serial dilutions of IgG on coated IGF-II, detected with HRP anti-human Fc antibody
[3] = molecular target: T2, recombinant human insulin-like growth factor I (IGF-I) (human, UniProt P05019 49-118); assay: Biacore, IgG1 format (effective KD, avidity)
T2 construct: coated or coupled to a CM5 chip in ELISA and Biacore; also called biotinylated IGF-I
T2 sequence (P05019 49-118 limits assumed): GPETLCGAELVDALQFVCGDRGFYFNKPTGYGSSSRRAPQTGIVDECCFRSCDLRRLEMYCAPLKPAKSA

[4] = molecular target: T1, human insulin-like growth factor II …; assay: Biacore, IgG1 format (effective KD, avidity)
[5] = molecular target: T2, recombinant human insulin-like growth …; assay: Biacore, IgG1 format
[6] = molecular target: T1, human insulin-like growth factor II …; assay: Biacore, IgG1 format
human insulin = human insulin (human); assay: ELISA, 10 nM IgG on coated human insulin, detected with HRP anti-human Fc antibody
human insulin (human), sequence (chain, as listed by the source limits assumed, chain 1 of 2): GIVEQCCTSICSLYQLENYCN
human insulin (human), sequence (chain, as listed by the source limits assumed, chain 2 of 2): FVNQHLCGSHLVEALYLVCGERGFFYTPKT

[7] = molecular target: T2, recombinant human insulin-like growth …; assay: ELISA on coated IGF-I after incubation of the antibody with an equal volume of human serum at 37 C for 0 to 9 days
[8] = molecular target: T2, recombinant human insulin-like growth …; assay: ELISA, serial dilutions of IgG on coated IGF-I, detected with HRP anti-human Fc antibody
[9] = molecular target: T2, recombinant human insulin-like growth …; assay: cell-based or functional assay
[10] = molecular target: T1, human insulin-like growth factor II …; assay: cell-based or functional assay
[11] = molecular target: T2, recombinant human insulin-like growth …; assay: FACS titration of yeast-displayed scFv with biotinylated antigen
[12] = molecular target: T1, human insulin-like growth factor II …; assay: as above
[13] = molecular target: T2, recombinant human insulin-like growth …; assay: Biacore X100, antigen immobilized on CM5, soluble scFv injected
[14] = molecular target: T1, human insulin-like growth factor II …; assay: as above
[15] = molecular target: T2, recombinant human insulin-like growth …; assay: FACS titration of yeast-displayed scFv with biotinylated antigen; remark: listed apart in the source
[16] = molecular target: T1, human insulin-like growth factor II …; assay: as above; remark: listed apart in the source
[17] = molecular target: T2, recombinant human insulin-like growth …; assay: ELISA on coated IGF-I after incubation of the antibody with an equal volume of human serum at 37 C for 0 to 9 days; remark: listed apart in the source
[18] = molecular target: T1, human insulin-like growth factor II …; assay: ELISA on coated IGF-II after incubation of the antibody with an equal volume of human serum at 37 C for 0 to 9 days; remark: listed apart in the source

B1: IgG1 m708.5 (antibody, V domains shown)
VH: QVQLQQLGAEVKMPGSSVKVSCKASGGTFSSYAISWVRQAPGQGLEWMGGIIPTLGIVKYAQKFQGRVTITADKSTSTAYMELSSLGSEDTAVYYCAGGPRGYSYNFDNWGQGTLVTVSS
VL: DIQMTQSPSSLSASVGDRVTIVCRASQTISRYVNWYQQKPGKAPKLLIYAASSLQSGVSSRFSGSGSGTEFALTISSLQPEDFATYFCQQTYSPPITFGQGTRLEIKQ
notes: Human IgG1, converted from the scFv in vector pDR12 and expressed in 293 FreeStyle cells; also called m708.5 IgG; IgG m708.5
EC50 (read off the curve) [1]: ~2 nM | EC50 (read off the curve) [2]: ~0.1 nM | Kd [3]: < 1 pM | Kd [4]: < 1 pM | fold change of effective KD against the scFv [5]: 1000 fold | fold change of effective KD against the scFv [6]: 60 fold | binding result (human insulin): no binding (tested: 10 nM) | EC50 (read off the curve) [7]: ~2 nM | EC50 (read off the curve) [8]: ~0.4 nM | growth inhibition of MCF-7 cells (MTS, 3 days; 2.5 nM IGF-I and 2.5 nM IGF-II added) [9]: > 40 nM | growth inhibition of MCF-7 cells (MTS, 3 days; 2.5 nM IGF-I and 2.5 nM IGF-II added) [10]: > 40 nM

B3: IgG1 m708.2 (antibody, V domains shown)
VH: B1 VH with L7P, M13K, T54I, V58A, K59N, K74E, G87R, G98R, N109Y
VL: B1 VL with V22A, V33L, A72T, Q108R
notes: Human IgG1 (pDR12, 293 FreeStyle cells); also called IgG m708.2; IgG708.2
EC50 (read off the curve) [8]: ~3 nM | IGF-I-induced (1 nM) phosphorylation of IGF-IR in MCF-7 cells, immunoblot [9]: 10 nM | growth inhibition of MCF-7 cells (MTS, 3 days; 2.5 nM IGF-I and 2.5 nM IGF-II added) [9]: > 80 nM | growth inhibition of MCF-7 cells (MTS, 3 days; 2.5 nM IGF-I and 2.5 nM IGF-II added) [10]: > 80 nM

B5: bispecific antibody m67 (bispecific antibody)
chain 1: QVQLVQSGAEVKKPGASVKVSCKASGYTFTSYYMHWVRQAPGQGLEWMGIINPSGGSTSYAQKFQGRVTMTRDTSTSTVYMELSRLRSDDTAVYYCARDVQWLAYGMDVWGQGTTVTVSS
chain 2: DIQMTQSPSSLSASVGDRVTITCRASQSISSYLNWYQQKPGRAPDLLINAASSLQSGVPSRFSGSGSGTDFTLTISSLQPEDFATYFCQQSYSLPFTFGGGTKVEIK
chain 3: B1 VH
chain 4: B1 VL
EC50 (read off the curve) [17]: ~1 nM | EC50 (read off the curve) [18]: ~3 nM

Now from value to binder:

Kd [11]: 3.9 nM | Kd [12]: 1.1 nM | Kd [13]: 2.2 nM | koff [13]: 0.0024 s⁻¹ | kon [13]: 1.1e+06 M⁻¹ s⁻¹ | Kd [14]: 1.8 nM | koff [14]: 0.0004 s⁻¹ | kon [14]: 230000 M⁻¹ s⁻¹
B2: m708.2 scFv (scFv, V domains shown)
VH: B1 VH with L7P, M13K, T54I, V58A, K59N, K74E, G87R, G98R, N109Y
VL: B1 VL with V22A, V33L, A72T, Q108R
notes: One-chain scFv; Biacore on the isolated soluble scFv from pComb3x

Kd [11]: 0.1 nM | Kd [12]: 0.041 nM | Kd [13]: 0.2 nM | koff [13]: 0.00028 s⁻¹ | kon [13]: 1.4e+06 M⁻¹ s⁻¹ | Kd [14]: 0.061 nM | koff [14]: 0.00025 s⁻¹ | kon [14]: 4.1e+06 M⁻¹ s⁻¹ | fold improvement of affinity against m708.2 [15]: 39 fold | fold improvement of affinity against m708.2 [16]: 27 fold
B4: m708.5 scFv (scFv, V domains shown)
VH: B1 VH
VL: B1 VL
notes: One-chain scFv; also called scFv m708.5
